For data set [1], the system named is HeLa Kyoto. Nature of the data set: solubility in G1/S (NP-40 vs SDS abundance) (log2 ratio); higher = more soluble. The settings on record: cell cycle stage: G1/S.
Data set [2] concerns HeLa Kyoto. The data set is described as follows: melting temperature (median over replicates), in situ; higher = more thermally stable.
Data set [3] deals with HeLa Kyoto. Nature of the data set: solubility change mitosis vs G1/S (difference of NP-40 vs SDS log2 ratios) (log2 ratio difference); higher = more soluble in mitosis.
In data set [4] the test system is HeLa Kyoto. Nature of the data set: thermal stability score vs G1/S (z-score of summed log2 fold changes over temperatures); higher = more thermally stable than in G1/S.
Setting [5] is: cell cycle stage: early G1 (4.5 h after nocodazole release).

This is an account of results in the supplement of paper PMC5998384.
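For melting temperature (median over replicates), in situ in this document: HeLa Kyoto cells synchronized by double thymidine or nocodazole block, proteins quantified by TMT10plex mass spectrometry, three independent biological replicates.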
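For solubility change mitosis vs G1/S (difference of NP-40 vs SDS log2 ratios) in this document: synchronized HeLa Kyoto cells (double thymidine block for G1/S, nocodazole release for mitosis), protein amounts in NP-40 versus SDS lysates quantified by mass spectrometry, three biological replicates.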
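For solubility in G1/S (NP-40 vs SDS abundance) in this document: HeLa Kyoto cells arrested at G1/S by double thymidine block, proteins quantified by TMT10plex mass spectrometry in mild NP-40 versus SDS extracts, three biological replicates.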
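For thermal stability score vs G1/S (z-score of summed log2 fold changes over temperatures) in this document: synchronized HeLa Kyoto cells, proteins quantified by TMT10plex mass spectrometry, three biological replicates, mitosis taken 0.5 h after nocodazole release, G1/S directly after double thymidine block.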

In the case of “MADSSGQQGKGRRVQPQWSPPAGTQPCRLHLYNSLTRNKEVFIPQDGKKVTWYCCGPTVYDASHMGHARSYISFDILRRVLKDYFKFDVFYCMNITDIDDKIIKRARQNHLFEQYREKRPEAAQLLEDVQAALKPFSVKLNETTDPDKKQMLERIQHAVQLATEPLEKAVQSRLTGEEVNSCVEVLLEEAKDLLSDWLDSTLGCDVTDNSIFSKLPKFWEGDFHRDMEALNVLPPDVLTRVSEYVPEIVNFVQKIVDNGYGYVSNGSVYFDTAKFASSEKHSYGKLVPEAVGDQKALQEGEGDLSISADRLSEKRSPNDFALWKASKPGEPSWPCPWGKGRPGWHIECSAMAGTLLGASMDIHGGGFDLRFPHHDNELAQSEAYFENDCWVRYFLHTGHLTIAGCKMSKSLKNFITIKDALKKHSARQLRLAFLMHSWKDTLDYSSNTMESALQYEKFLNEFFLNVKDILRAPVDITGQFEKWGEEEAELNKNFYDKKTAIHKALCDNVDTRTVMEEMRALVSQCNLYMAARKAVRKRPNQALLENIALYLTHMLKIFGAVEEDSSLGFPVGGPGTSLSLEATVMPYLQVLSEFREGVRKIAREQKVPEILQLSDALRDNILPELGVRFEDHEGLPTVVKLVDRNTLLKEREEKRRVEEEKRKKKEEAARRKQEQEAAKLAKMKIPPSEMFLSETDKYSKFDENGLPTHDMEGKELSKGQAKKLKKLFEAQEKLYKEYLQMAQNGSFQ [CARS]”, in the data set on HeLa Kyoto [1], the “solubility in G1/S (log2)” value was 0.0728. The melting temperature in the data set on HeLa Kyoto [2] (cell cycle stage: G1/S) is 52.9 °C; in the data set on HeLa Kyoto [2] (cell cycle stage: mitosis) it was 52.6 °C. In the data set on HeLa Kyoto [3], the “solubility change mitosis (log2)” value is -0.103. Besides, the figures for the thermal stability score with HeLa Kyoto [4] (setting [5]) and in the data set with HeLa Kyoto [4] (cell cycle stage: mitosis) were 0.401 and -0.0333, respectively.
As to “MFEEPEWAEAAPVAAGLGPVISRPPPAASSQNKGSKRRQLLATLRALEAASLSQHPPSLCISDSEEEEEERKKKCPKKASFASASAEVGKKGKKKCQKQGPPCSDSEEEVERKKKCHKQALVGSDSAEDEKRKRKCQKHAPINSAQHLDNVDQTGPKAWKGSTTNDPPKQSPGSTSPKPPHTLSRKQWRNRQKNKRRCKNKFQPPQVPDQAPAEAPTEKTEVSPVPRTDSHEARAGALRARMAQRLDGARFRYLNEQLYSGPSSAAQRLFQEDPEAFLLYHRGFQSQVKKWPLQPVDRIARDLRQRPASLVVADFGCGDCRLASSIRNPVHCFDLASLDPRVTVCDMAQVPLEDESVDVAVFCLSLMGTNIRDFLEEANRVLKPGGLLKVAEVSSRFEDVRTFLRAVTKLGFKIVSKDLTNSHFFLFDFQKTGPPLVGPKAQLSGLQLQPCLYKRR [RRP8]”, the “solubility in G1/S (log2)” value in the data set with HeLa Kyoto [1] is -1.46. In addition, the melting temperature in the data set with HeLa Kyoto [2] (cell cycle stage: G1/S) was 49.1 °C; in the data set with HeLa Kyoto [2] (cell cycle stage: mitosis), 51.7 °C. For the same sequence, in the data set on HeLa Kyoto [3], the “solubility change mitosis (log2)” value came out at 0.852. Moreover, the thermal stability score in the data set with HeLa Kyoto [4] (setting [5]) came to 1.48; in the data set on HeLa Kyoto [4] (cell cycle stage: mitosis), 2.48.
Regarding “MSGGASATGPRRGPPGLEDTTSKKKQKDRANQESKDGDPRKETGSRYVAQAGLEPLASGDPSASASHAAGITGSRHRTRLFFPSSSGSASTPQEEQTKEGACEDPHDLLATPTPELLLDWRQSAEEVIVKLRVGVGPLQLEDVDAAFTDTDCVVRFAGGQQWGGVFYAEIKSSCAKVQTRKGSLLHLTLPKKVPMLTWPSLLVEADEQLCIPPLNSQTCLLGSEENLAPLAGEKAVPPGNDPVSPAMVRSRNPGKDDCAKEEMAVAADAATLVDEPESMVNLAFVKNDSYEKGPDSVVVHVYVKEICRDTSRVLFREQDFTLIFQTRDGNFLRLHPGCGPHTTFRWQVKLRNLIEPEQCTFCFTASRIDICLRKRQSQRWGGLEAPAARVGGAKVAVPTGPTPLDSTPPGGAPHPLTGQEEARAVEKDKSKARSEDTGLDSVATRTPMEHVTPKPETHLASPKPTCMVPPMPHSPVSGDSVEEEEEEEKKVCLPGFTGLVNLGNTCFMNSVIQSLSNTRELRDFFHDRSFEAEINYNNPLGTGGRLAIGFAVLLRALWKGTHHAFQPSKLKAIVASKASQFTGYAQHDAQEFMAFLLDGLHEDLNRIQNKPYTETVDSDGRPDEVVAEEAWQRHKMRNDSFIVDLFQGQYKSKLVCPVCAKVSITFDPFLYLPVPLPQKQKVLPVFYFAREPHSKPIKFLVSVSKENSTASEVLDSLSQSVHVKPENLRLAEVIKNRFHRVFLPSHSLDTVSPSDTLLCFELLSSELAKERVVVLEVQQRPQVPSVPISKCAACQRKQQSEDEKLKRCTRCYRVGYCNQLCQKTHWPDHKGLCRPENIGYPFLVSVPASRLTYARLAQLLEGYARYSVSVFQPPFQPGRMALESQSPGCTTLLSTGSLEAGDSERDPIQPPELQLVTPMAEGDTGLPRVWAAPDRGPVPSTSGISSEMLASGPIEVGSLPAGERVSRPEAAVPGYQHPSEAMNAHTPQFFIYKIDSSNREQRLEDKGDTPLELGDDCSLALVWRNNERLQEFVLVASKELECAEDPGSAGEAARAGHFTLDQCLNLFTRPEVLAPEEAWYCPQCKQHREASKQLLLWRLPNVLIVQLKRFSFRSFIWRDKINDLVEFPVRNLDLSKFCIGQKEEQLPSYDLYAVINHYGGMIGGHYTACARLPNDRSSQRSDVGWRLFDDSTVTTVDESQVVTRYAYVLFYRRRNSPVERPPRAGHSEHHPDLGPAAEAAASQASRIWQELEAEEEPVPEGSGPLGPWGPQDWVGPLPRGPTTPDEGCLRYFVLGTVAALVALVLNVFYPLVSQSRWR [USP19]”, the “solubility in G1/S (log2)” value with HeLa Kyoto [1] is -0.0565. The melting temperature in the data set with HeLa Kyoto [2] (cell cycle stage: G1/S) is 51.1 °C; in the data set with HeLa Kyoto [2] (cell cycle stage: mitosis), 51 °C. In addition, in the data set with HeLa Kyoto [3], the “solubility change mitosis (log2)” value was -0.0948. In addition, the thermal stability score is -0.212 in the data set with HeLa Kyoto [4] (setting [5]) and -0.109 in the data set with HeLa Kyoto [4] (cell cycle stage: mitosis).
In the case of “MDHYDSQQTNDYMQPEEDWDRDLLLDPAWEKQQRKTFTAWCNSHLRKAGTQIENIEEDFRDGLKLMLLLEVISGERLAKPERGKMRVHKISNVNKALDFIASKGVKLVSIGAEEIVDGNVKMTLGMIWTIILRFAIQDISVEETSAKEGLLLWCQRKTAPYKNVNIQNFHISWKDGLGFCALIHRHRPELIDYGKLRKDDPLTNLNTAFDVAEKYLDIPKMLDAEDIVGTARPDEKAIMTYVSSFYHAFSGAQKAETAANRICKVLAVNQENEQLMEDYEKLASDLLEWIRRTIPWLENRVPENTMHAMQQKLEDFRDYRRLHKPPKVQEKCQLEINFNTLQTKLRLSNRPAFMPSEGRMVSDINNAWGCLEQVEKGYEEWLLNEIRRLERLDHLAEKFRQKASIHEAWTDGKEAMLRQKDYETATLSEIKALLKKHEAFESDLAAHQDRVEQIAAIAQELNELDYYDSPSVNARCQKICDQWDNLGALTQKRREALERTEKLLETIDQLYLEYAKRAAPFNNWMEGAMEDLQDTFIVHTIEEIQGLTTAHEQFKATLPDADKERLAILGIHNEVSKIVQTYHVNMAGTNPYTTITPQEINGKWDHVRQLVPRRDQALTEEHARQQHNERLRKQFGAQANVIGPWIQTKMEEIGRISIEMHGTLEDQLSHLRQYEKSIVNYKPKIDQLEGDHQLIQEALIFDNKHTNYTMEHIRVGWEQLLTTIARTINEVENQILTRDAKGISQEQMNEFRASFNHFDRDHSGTLGPEEFKACLISLGYDIGNDPQGEAEFARIMSIVDPNRLGVVTFQAFIDFMSRETADTDTADQVMASFKILAGDKNYITMDELRRELPPDQAEYCIARMAPYTGPDSVPGALDYMSFSTALYGESDL [ACTN1]”, the “solubility in G1/S (log2)” value in the data set with HeLa Kyoto [1] was -0.1. Further, the melting temperature in the data set on HeLa Kyoto [2] (cell cycle stage: G1/S) was 58.3 °C; in the data set on HeLa Kyoto [2] (cell cycle stage: mitosis) it was 55.9 °C. The “solubility change mitosis (log2)” value with HeLa Kyoto [3] worked out at 0.09. Also, the thermal stability score in the data set on HeLa Kyoto [4] (setting [5]) was -0.623; in the data set on HeLa Kyoto [4] (cell cycle stage: mitosis) it was -1.86.
With “MSADAAAGAPLPRLCCLEKGPNGYGFHLHGEKGKLGQYIRLVEPGSPAEKAGLLAGDRLVEVNGENVEKETHQQVVSRIRAALNAVRLLVVDPETDEQLQKLGVQVREELLRAQEAPGQAEPPAAAEVQGAGNENEPREADKSHPEQRELRPRLCTMKKGPSGYGFNLHSDKSKPGQFIRSVDPDSPAEASGLRAQDRIVEVNGVCMEGKQHGDVVSAIRAGGDETKLLVVDRETDEFFKKCRVIPSQEHLNGPLPVPFTNGEIQKENSREALAEAALESPRPALVRSASSDTSEELNSQDSPPKQDSTAPSSTSSSDPILDFNISLAMAKERAHQKRSSKRAPQMDWSKKNELFSNL [SLC9A3R1]”, in the data set on HeLa Kyoto [1], the “solubility in G1/S (log2)” value amounted to 0.536. In addition, the melting temperature in the data set with HeLa Kyoto [2] (cell cycle stage: G1/S) amounted to 56.5 °C; with HeLa Kyoto [2] (cell cycle stage: mitosis) it was 57.1 °C. Moreover, the “solubility change mitosis (log2)” value in the data set with HeLa Kyoto [3] was -0.0214. Also, the thermal stability score is -1.17 in the data set on HeLa Kyoto [4] (setting [5]) and -0.944 in the data set with HeLa Kyoto [4] (cell cycle stage: mitosis).
